Laboratory results published in PMC1885262, “Purification and preliminary crystallization of alanine racemase from Streptococcus pneumoniae” (BMC Microbiology, 2007).

Assays:
[1] = substrate: C[C@@H](N)C(=O)O; assay: alanine racemase photometric assay; assay type: biochemical, Streptococcus pneumoniae; conditions: 23°C, D- to L-alanine direction
[2] = substrate: C[C@H](N)C(=O)O; assay: alanine racemase photometric assay; assay type: biochemical, Streptococcus pneumoniae; conditions: 23°C, L- to D-alanine direction

B1: AlrSP (alanine racemase from S. pneumoniae) (Streptococcus pneumoniae R6) (protein)
chain: MKASPHRPTKALIHLGAIRQNIQQMGAHIPQGTLKLAVVKANAYGHGAVAVAKAIQDDVDGFCVSNIDEAIELRQAGLSKPILILGVSEIEAVALAKEYDFTLTVAGLEWIQALLDKEVDLTGLTVHLKIDSGMGRIGFREASEVEQAQDLLQQHGVCVEGIFTHFATADEESDDYFNAQLERFKTILASMKEVPELVHASNSATTLWHVETIFNAVRMGDAMYGLNPSGAVLDLPYDLIPALTLESALVHVKTVPAGACMGYGATYQADSEQVIATVPIGYADGWTRDMQNFSVLVDGQACPIVGRVSMDQITIRLPKLYPLGTKVTLIGSNGDKEITATQVATYRVTINYEVVCLLSDRIPREYY
notes: full length, 367 residues, 39854 Da, homodimer (~80 kDa by gel filtration); pET17-alrSP (NdeI/BamHI) in E. coli BL21(DE3) pLysS; no tag mentioned
- Km [1]: 2100 µM
- Km [2]: 1920 µM
